Numbered stars: 1 amine (or outer) side, 2 acyl side, 3 side chain; on linkers, the order of the positions; unused ones are H or OH. Bridge positions count the residues as written; N and C are the ends. Square brackets hold non-standard residues; d marks the D form. * marks the point of attachment. C20 diacid = O=C(O)CCCCCCCCCCCCCCCCCCC(=O)*; γGlu = O=C(O)[C@H](CCC(=O)[*:2])N[*:1]; Hyp = O=C(O)[C@@H]1C[C@@H](O)CN1; NMeI = CC[C@H](C)[C@H](NC)C(=O)O; Aad = N[C@@H](CCCC(=O)O)C(=O)O; Orn = NCCC[C@H](N)C(=O)O; Sar = CNCC(=O)O
Tests used:
[1] = target: recombinant human amylin 3 receptor (hAMYR3) (human), P30988; test: cell-based or functional assay
Sequence of recombinant human amylin 3 receptor (hAMYR3) (human), P30988 (P30988 25-474, chain 1 of 2): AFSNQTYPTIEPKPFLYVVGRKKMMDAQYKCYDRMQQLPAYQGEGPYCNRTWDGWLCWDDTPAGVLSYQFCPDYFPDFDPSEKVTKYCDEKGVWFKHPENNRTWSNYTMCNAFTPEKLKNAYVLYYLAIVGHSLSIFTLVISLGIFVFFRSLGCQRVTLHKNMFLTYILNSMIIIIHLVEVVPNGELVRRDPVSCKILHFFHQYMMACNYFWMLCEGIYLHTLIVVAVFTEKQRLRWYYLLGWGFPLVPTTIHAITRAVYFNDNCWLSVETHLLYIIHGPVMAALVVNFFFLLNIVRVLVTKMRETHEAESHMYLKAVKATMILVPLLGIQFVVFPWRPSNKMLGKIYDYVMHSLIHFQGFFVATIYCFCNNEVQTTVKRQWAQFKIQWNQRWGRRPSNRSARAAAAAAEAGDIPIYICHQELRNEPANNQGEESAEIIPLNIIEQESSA
Sequence of recombinant human amylin 3 receptor (hAMYR3) (human), P30988 (O60896 24-148, chain 2 of 2, further chain): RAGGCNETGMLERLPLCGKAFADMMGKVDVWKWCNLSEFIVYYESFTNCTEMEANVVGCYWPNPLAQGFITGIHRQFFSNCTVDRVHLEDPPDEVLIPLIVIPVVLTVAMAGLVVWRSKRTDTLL

[2] = target: recombinant human calcitonin receptor (hCT-R) (human), P30988; test: cell-based or functional assay
Sequence of recombinant human calcitonin receptor (hCT-R) (human), P30988 (P30988 25-474): as the sequence (P30988 25-474, chain 1 of 2) above

B1: Compound 28 (peptide)
peptide: {C20 diacid-γGlu}-RDQTAT[Orn]ATERLA[Aad]FLQRGTF[Sar]A[NMeI]LSSTEVGSNT[Hyp]-NH2
modifications: lactam 2-7
SMILES: CC[C@H](C)[C@@H](C(=O)N[C@@H](CC(C)C)C(=O)N[C@@H](CO)C(=O)N[C@@H](CO)C(=O)N[C@H](C(=O)N[C@@H](CCC(=O)O)C(=O)N[C@H](C(=O)NCC(=O)N[C@@H](CO)C(=O)N[C@@H](CC(N)=O)C(=O)N[C@H](C(=O)N1C[C@H](O)C[C@H]1C(N)=O)[C@@H](C)O)C(C)C)[C@@H](C)O)N(C)C(=O)[C@H](C)NC(=O)CN(C)C(=O)[C@H](Cc1ccccc1)NC(=O)[C@@H](NC(=O)CNC(=O)[C@H](CCCNC(=N)N)NC(=O)[C@H](CCC(N)=O)NC(=O)[C@H](CC(C)C)NC(=O)[C@H](Cc1ccccc1)NC(=O)[C@H](CCCC(=O)O)NC(=O)[C@H](C)NC(=O)[C@H](CC(C)C)NC(=O)[C@H](CCCNC(=N)N)NC(=O)[C@H](CCC(=O)O)NC(=O)[C@@H](NC(=O)[C@H](C)NC(=O)[C@@H]1CCCNC(=O)C[C@H](NC(=O)[C@H](CCCNC(=N)N)NC(=O)CC[C@H](NC(=O)CCCCCCCCCCCCCCCCCCC(=O)O)C(=O)O)C(=O)N[C@@H](CCC(N)=O)C(=O)N[C@@H]([C@@H](C)O)C(=O)N[C@@H](C)C(=O)N[C@@H]([C@@H](C)O)C(=O)N1)[C@@H](C)O)[C@@H](C)O
[1]
  hAMYR3 EC50 [nM] (cAMP formation, 1321N1 cells expressing hAMYR3): 0.268 nM
[2]
  hCT-R EC50 [nM] (cAMP formation, 1321N1 cells expressing hCT-R): 1.23 nM

B2: Compound 3 (peptide)
peptide: {C20 diacid-γGlu}-RDGTAT[Orn]ATERLAHFLQRSSF[Sar]A[NMeI]LSSTEVGSNT[Hyp]-NH2
modifications: lactam 2-7
SMILES: CC[C@H](C)[C@@H](C(=O)N[C@@H](CC(C)C)C(=O)N[C@@H](CO)C(=O)N[C@@H](CO)C(=O)N[C@H](C(=O)N[C@@H](CCC(=O)O)C(=O)N[C@H](C(=O)NCC(=O)N[C@@H](CO)C(=O)N[C@@H](CC(N)=O)C(=O)N[C@H](C(=O)N1C[C@H](O)C[C@H]1C(N)=O)[C@@H](C)O)C(C)C)[C@@H](C)O)N(C)C(=O)[C@H](C)NC(=O)CN(C)C(=O)[C@H](Cc1ccccc1)NC(=O)[C@H](CO)NC(=O)[C@H](CO)NC(=O)[C@H](CCCNC(=N)N)NC(=O)[C@H](CCC(N)=O)NC(=O)[C@H](CC(C)C)NC(=O)[C@H](Cc1ccccc1)NC(=O)[C@H](Cc1c[nH]cn1)NC(=O)[C@H](C)NC(=O)[C@H](CC(C)C)NC(=O)[C@H](CCCNC(=N)N)NC(=O)[C@H](CCC(=O)O)NC(=O)[C@@H](NC(=O)[C@H](C)NC(=O)[C@@H]1CCCNC(=O)C[C@H](NC(=O)[C@H](CCCNC(=N)N)NC(=O)CC[C@H](NC(=O)CCCCCCCCCCCCCCCCCCC(=O)O)C(=O)O)C(=O)NCC(=O)N[C@@H]([C@@H](C)O)C(=O)N[C@@H](C)C(=O)N[C@@H]([C@@H](C)O)C(=O)N1)[C@@H](C)O
[1]
  hAMYR3 EC50 [nM] (cAMP formation, 1321N1 cells expressing hAMYR3): 0.035 nM
[2]
  hCT-R EC50 [nM] (cAMP formation, 1321N1 cells expressing hCT-R): 0.081 nM

B3: Compound 23 (peptide)
peptide: {C20 diacid-γGlu}-RDGTAT[Orn]ATERLA[Aad]FLQRTTF[Sar]A[NMeI]LSSTEVGSNT[Hyp]-NH2
modifications: lactam 2-7
SMILES: CC[C@H](C)[C@@H](C(=O)N[C@@H](CC(C)C)C(=O)N[C@@H](CO)C(=O)N[C@@H](CO)C(=O)N[C@H](C(=O)N[C@@H](CCC(=O)O)C(=O)N[C@H](C(=O)NCC(=O)N[C@@H](CO)C(=O)N[C@@H](CC(N)=O)C(=O)N[C@H](C(=O)N1C[C@H](O)C[C@H]1C(N)=O)[C@@H](C)O)C(C)C)[C@@H](C)O)N(C)C(=O)[C@H](C)NC(=O)CN(C)C(=O)[C@H](Cc1ccccc1)NC(=O)[C@@H](NC(=O)[C@@H](NC(=O)[C@H](CCCNC(=N)N)NC(=O)[C@H](CCC(N)=O)NC(=O)[C@H](CC(C)C)NC(=O)[C@H](Cc1ccccc1)NC(=O)[C@H](CCCC(=O)O)NC(=O)[C@H](C)NC(=O)[C@H](CC(C)C)NC(=O)[C@H](CCCNC(=N)N)NC(=O)[C@H](CCC(=O)O)NC(=O)[C@@H](NC(=O)[C@H](C)NC(=O)[C@@H]1CCCNC(=O)C[C@H](NC(=O)[C@H](CCCNC(=N)N)NC(=O)CC[C@H](NC(=O)CCCCCCCCCCCCCCCCCCC(=O)O)C(=O)O)C(=O)NCC(=O)N[C@@H]([C@@H](C)O)C(=O)N[C@@H](C)C(=O)N[C@@H]([C@@H](C)O)C(=O)N1)[C@@H](C)O)[C@@H](C)O)[C@@H](C)O
[1]
  hAMYR3 EC50 [nM] (cAMP formation, 1321N1 cells expressing hAMYR3): 0.706 nM
[2]
  hCT-R EC50 [nM] (cAMP formation, 1321N1 cells expressing hCT-R): 1.93 nM

B4: Compound 26 (peptide)
peptide: {C20 diacid-γGlu}-RDGTAT[Orn]ATERLA[Aad]FLQRAAF[Sar]A[NMeI]LSSTEVGSNT[Hyp]-NH2
modifications: lactam 2-7
SMILES: CC[C@H](C)[C@@H](C(=O)N[C@@H](CC(C)C)C(=O)N[C@@H](CO)C(=O)N[C@@H](CO)C(=O)N[C@H](C(=O)N[C@@H](CCC(=O)O)C(=O)N[C@H](C(=O)NCC(=O)N[C@@H](CO)C(=O)N[C@@H](CC(N)=O)C(=O)N[C@H](C(=O)N1C[C@H](O)C[C@H]1C(N)=O)[C@@H](C)O)C(C)C)[C@@H](C)O)N(C)C(=O)[C@H](C)NC(=O)CN(C)C(=O)[C@H](Cc1ccccc1)NC(=O)[C@H](C)NC(=O)[C@H](C)NC(=O)[C@H](CCCNC(=N)N)NC(=O)[C@H](CCC(N)=O)NC(=O)[C@H](CC(C)C)NC(=O)[C@H](Cc1ccccc1)NC(=O)[C@H](CCCC(=O)O)NC(=O)[C@H](C)NC(=O)[C@H](CC(C)C)NC(=O)[C@H](CCCNC(=N)N)NC(=O)[C@H](CCC(=O)O)NC(=O)[C@@H](NC(=O)[C@H](C)NC(=O)[C@@H]1CCCNC(=O)C[C@H](NC(=O)[C@H](CCCNC(=N)N)NC(=O)CC[C@H](NC(=O)CCCCCCCCCCCCCCCCCCC(=O)O)C(=O)O)C(=O)NCC(=O)N[C@@H]([C@@H](C)O)C(=O)N[C@@H](C)C(=O)N[C@@H]([C@@H](C)O)C(=O)N1)[C@@H](C)O
[1]
  hAMYR3 EC50 [nM] (cAMP formation, 1321N1 cells expressing hAMYR3): 0.12 nM
[2]
  hCT-R EC50 [nM] (cAMP formation, 1321N1 cells expressing hCT-R): 0.769 nM

B5: Compound 27 (peptide)
peptide: {C20 diacid-γGlu}-RDGTAT[Orn]ATERLA[Aad]FLQRGTF[Sar]A[NMeI]LSSTEVGSNT[Hyp]-NH2
modifications: lactam 2-7
SMILES: CC[C@H](C)[C@@H](C(=O)N[C@@H](CC(C)C)C(=O)N[C@@H](CO)C(=O)N[C@@H](CO)C(=O)N[C@H](C(=O)N[C@@H](CCC(=O)O)C(=O)N[C@H](C(=O)NCC(=O)N[C@@H](CO)C(=O)N[C@@H](CC(N)=O)C(=O)N[C@H](C(=O)N1C[C@H](O)C[C@H]1C(N)=O)[C@@H](C)O)C(C)C)[C@@H](C)O)N(C)C(=O)[C@H](C)NC(=O)CN(C)C(=O)[C@H](Cc1ccccc1)NC(=O)[C@@H](NC(=O)CNC(=O)[C@H](CCCNC(=N)N)NC(=O)[C@H](CCC(N)=O)NC(=O)[C@H](CC(C)C)NC(=O)[C@H](Cc1ccccc1)NC(=O)[C@H](CCCC(=O)O)NC(=O)[C@H](C)NC(=O)[C@H](CC(C)C)NC(=O)[C@H](CCCNC(=N)N)NC(=O)[C@H](CCC(=O)O)NC(=O)[C@@H](NC(=O)[C@H](C)NC(=O)[C@@H]1CCCNC(=O)C[C@H](NC(=O)[C@H](CCCNC(=N)N)NC(=O)CC[C@H](NC(=O)CCCCCCCCCCCCCCCCCCC(=O)O)C(=O)O)C(=O)NCC(=O)N[C@@H]([C@@H](C)O)C(=O)N[C@@H](C)C(=O)N[C@@H]([C@@H](C)O)C(=O)N1)[C@@H](C)O)[C@@H](C)O
[1]
  hAMYR3 EC50 [nM] (cAMP formation, 1321N1 cells expressing hAMYR3): 0.325 nM
[2]
  hCT-R EC50 [nM] (cAMP formation, 1321N1 cells expressing hCT-R): 0.521 nM

B6: Compound 24 (peptide)
peptide: {C20 diacid-γGlu}-RDGTAT[Orn]ATERLA[Aad]FLQRTTF[Sar]A[NMeI]PSSTEVGSNT[Hyp]-NH2
modifications: lactam 2-7
SMILES: CC[C@H](C)[C@@H](C(=O)N1CCC[C@H]1C(=O)N[C@@H](CO)C(=O)N[C@@H](CO)C(=O)N[C@H](C(=O)N[C@@H](CCC(=O)O)C(=O)N[C@H](C(=O)NCC(=O)N[C@@H](CO)C(=O)N[C@@H](CC(N)=O)C(=O)N[C@H](C(=O)N1C[C@H](O)C[C@H]1C(N)=O)[C@@H](C)O)C(C)C)[C@@H](C)O)N(C)C(=O)[C@H](C)NC(=O)CN(C)C(=O)[C@H](Cc1ccccc1)NC(=O)[C@@H](NC(=O)[C@@H](NC(=O)[C@H](CCCNC(=N)N)NC(=O)[C@H](CCC(N)=O)NC(=O)[C@H](CC(C)C)NC(=O)[C@H](Cc1ccccc1)NC(=O)[C@H](CCCC(=O)O)NC(=O)[C@H](C)NC(=O)[C@H](CC(C)C)NC(=O)[C@H](CCCNC(=N)N)NC(=O)[C@H](CCC(=O)O)NC(=O)[C@@H](NC(=O)[C@H](C)NC(=O)[C@@H]1CCCNC(=O)C[C@H](NC(=O)[C@H](CCCNC(=N)N)NC(=O)CC[C@H](NC(=O)CCCCCCCCCCCCCCCCCCC(=O)O)C(=O)O)C(=O)NCC(=O)N[C@@H]([C@@H](C)O)C(=O)N[C@@H](C)C(=O)N[C@@H]([C@@H](C)O)C(=O)N1)[C@@H](C)O)[C@@H](C)O)[C@@H](C)O
[1]
  hAMYR3 EC50 [nM] (cAMP formation, 1321N1 cells expressing hAMYR3): 0.013 nM
[2]
  hCT-R EC50 [nM] (cAMP formation, 1321N1 cells expressing hCT-R): 0.038 nM

B7: Compound 25 (peptide)
peptide: {C20 diacid-γGlu}-RDGTAT[Orn]ATERLA[Aad]FLQRATF[Sar]A[NMeI]LSSTEVGSNT[Hyp]-NH2
modifications: lactam 2-7
SMILES: CC[C@H](C)[C@@H](C(=O)N[C@@H](CC(C)C)C(=O)N[C@@H](CO)C(=O)N[C@@H](CO)C(=O)N[C@H](C(=O)N[C@@H](CCC(=O)O)C(=O)N[C@H](C(=O)NCC(=O)N[C@@H](CO)C(=O)N[C@@H](CC(N)=O)C(=O)N[C@H](C(=O)N1C[C@H](O)C[C@H]1C(N)=O)[C@@H](C)O)C(C)C)[C@@H](C)O)N(C)C(=O)[C@H](C)NC(=O)CN(C)C(=O)[C@H](Cc1ccccc1)NC(=O)[C@@H](NC(=O)[C@H](C)NC(=O)[C@H](CCCNC(=N)N)NC(=O)[C@H](CCC(N)=O)NC(=O)[C@H](CC(C)C)NC(=O)[C@H](Cc1ccccc1)NC(=O)[C@H](CCCC(=O)O)NC(=O)[C@H](C)NC(=O)[C@H](CC(C)C)NC(=O)[C@H](CCCNC(=N)N)NC(=O)[C@H](CCC(=O)O)NC(=O)[C@@H](NC(=O)[C@H](C)NC(=O)[C@@H]1CCCNC(=O)C[C@H](NC(=O)[C@H](CCCNC(=N)N)NC(=O)CC[C@H](NC(=O)CCCCCCCCCCCCCCCCCCC(=O)O)C(=O)O)C(=O)NCC(=O)N[C@@H]([C@@H](C)O)C(=O)N[C@@H](C)C(=O)N[C@@H]([C@@H](C)O)C(=O)N1)[C@@H](C)O)[C@@H](C)O
[1]
  hAMYR3 EC50 [nM] (cAMP formation, 1321N1 cells expressing hAMYR3): 0.336 nM
[2]
  hCT-R EC50 [nM] (cAMP formation, 1321N1 cells expressing hCT-R): 0.844 nM

Reference: patent US20180071366A1
